From patent US20060275764

Biological target: Mannan-binding lectin (MBL), P11226
Sequence (P11226 21-248): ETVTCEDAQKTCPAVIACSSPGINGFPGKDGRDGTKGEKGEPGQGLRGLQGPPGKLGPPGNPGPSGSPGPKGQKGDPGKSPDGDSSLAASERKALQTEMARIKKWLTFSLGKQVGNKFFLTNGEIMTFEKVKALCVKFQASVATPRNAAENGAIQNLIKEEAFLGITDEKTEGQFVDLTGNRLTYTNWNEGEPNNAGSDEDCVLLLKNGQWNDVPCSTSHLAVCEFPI

B1: MASP-2 (MBL-associated serine protease 2), wild type, recombinant (protein)
chain: TPLGPKWPEPVFGRLASPGFPGEYANDQERRWTLTAPPGYRLRLYFTHFDLELSHLCEYDFVKLSSGAKVLATLCGQESTDTERAPGKDTFYSLGSSLDITFRSDYSNEKPFTGFEAFYAAEDIDECQVAPGEAPTCDHHCHNHLGGFYCSCRAGYVLHRNKRTCSALCSGQVFTQRSGELSSPEYPRPYPKLSSCTYSISLEEGFSVILDFVESFDVETHPETLCPYDFLKIQTDREEHGPFCGKTLPHRIETKSNTVTITFVTDESGDHTGWKIHYTSTAQPCPYPMAPPNGHVSPVQAKYILKDSFSIFCETGYELLQGHLPLKSFTAVCQKDGSWDRPMPACSIVDCGPPDDLPSGRVEYITGPGVTTYKAVIQYSCEETFYTMKVNDGKYVCEADGFWTSSKGEKSLPVCEPVCGLSARTTGGRIYGGQKAKPGDFPWQVLILGGTTAAGALLYDNWVLTAAHAVYEQKHDASALDIRMGTLKRLSPHYTQAWSEAVFIHEGYTHDAGFDNDIALIKLNNKVVINSNITPICLPRKEAESFMRTDDIGTASGWGLTQRGFLARNLMYVDIPIVDHQKCTAAYEKPPYPRGSVTANMLCAGLESGGKDSCRGDSGGALVFLDSETERWFVGGIVSWGSMNCGEAGQYGVYTKVINYIPWIENIISDF
Q: For B1, which “MBL pathway activity (C4b deposition in mannan coated wells)” value is on record?
A: Restoration of the MBL pathway was also achieved by adding recombinant MASP-2 to the patient serum
